Laboratory results taken from publication PMC11853200.

Columns and labels:
[1] = target: MotS_(68–242)(E75A) (Bacillus subtilis); assay: SEC; Superdex 75 10/300 GL, 20 mM Tris-HCl pH 8.0 with 300 mM NaCl, 0.6 mL/min; size markers ovalbumin (43 kDa) and IgG (158 kDa)
[2] = target: Bs-MotS_(68–242), periplasmic fragment of the stator B-subunit MotS from Bacillus subtilis (Bacillus subtilis); assay: crystal structure; protein purified in 150 mM NaCl; crystals from 1.26 M ammonium sulfate, 0.1 M HEPES-NaOH pH 7.5, 293 K; solution containing 92 mM NaCl; 1.89 Å
[3] = target: Bs-MotS_(68–242), periplasmic fragment of the stator B-subunit MotS from Bacillus subtilis (Bacillus subtilis); assay: SEC; Superdex 75 10/300 GL, 20 mM Tris-HCl pH 8.0 with 300 mM KCl (no Na+), 0.6 mL/min; size markers ovalbumin (43 kDa) and IgG (158 kDa)
[4] = target: Bs-MotS_(68–242), periplasmic fragment of the stator B-subunit MotS from Bacillus subtilis (Bacillus subtilis); assay: SEC; Superdex 75 10/300 GL, 20 mM Tris-HCl pH 8.0 with 300 mM NaCl, 0.6 mL/min; size markers ovalbumin (43 kDa) and IgG (158 kDa)
[5] = target: Bs-MotS_(68–242), periplasmic fragment of the stator B-subunit MotS from Bacillus subtilis (Bacillus subtilis); assay: crystal structure; protein purified in 300 mM NaCl; crystals from 20% PEG-8000, 0.1 M HEPES-NaOH pH 7.5, 293 K; soaked in 300 mM NaCl; 1.89 Å
[6] = target: Bs-MotS_(68–242), periplasmic fragment of the stator B-subunit MotS from Bacillus subtilis (Bacillus subtilis); assay: crystal structure; protein purified in 300 mM KCl; crystals from 40% PEG-300, 0.1 M Na2HPO4/citric acid pH 4.2, 293 K; soaked in 40 mM NaCl/300 mM KCl; 1.90 Å
[7] = target: MotS_(68–242)(D70A/E75A) (Bacillus subtilis); assay: SEC; Superdex 75 10/300 GL, 20 mM Tris-HCl pH 8.0 with 300 mM NaCl, 0.6 mL/min; size markers ovalbumin (43 kDa) and IgG (158 kDa)
[8] = target: MotS_(68–242)(D70A) (Bacillus subtilis); assay: as above

MotS_(68–242)(E75A) (domain or fragment)
stoichiometry N [1]: 2

Bs-MotS_(68–242), periplasmic fragment of the stator B-subunit MotS from Bacillus subtilis (domain or fragment)
stoichiometry N [2]: 2 | stoichiometry N [3]: 2 | stoichiometry N [4]: 2 | stoichiometry N [5]: 2 | stoichiometry N [6]: 2

MotS_(68–242)(D70A/E75A) (domain or fragment)
stoichiometry N [7]: 2

MotS_(68–242)(D70A) (domain or fragment)
stoichiometry N [8]: 2
